Tests used:
[1] = biological target: Bacillus subtilis Rel N-terminal domain region (RelBs^NTD; residues 1 to 373) (Bacillus subtilis); test: ITC; DarB or DarB variants in the syringe at 200 μM, RelBs^NTD or variants in the cell at 15 μM; 25°C; 50 mM Hepes pH 7.5, 500 mM KCl, 500 mM NaCl, 10 mM MgCl2, 1 mM TCEP, 0.002% mellitic acid
[2] = biological target: RelBs^NTD Y279A (B. subtilis); test: ITC; DarB or DarB variant (200 uM) in the syringe titrated into RelBs^NTD or variant (15 uM) in the cell; 25 °C; 50 mM Hepes pH 7.5, 500 mM KCl, 500 mM NaCl, 10 mM MgCl2, 1 mM TCEP, 0.002% mellitic acid
[3] = biological target: Rel (Bacillus subtilis) (UniProt O54408); settings: cited from earlier work

Kd [1] [µM]	Kd [2] [µM]	Substance	Kd [3] [µM]
1.4	4	Bacillus subtilis DarB (from UniProt O31698 1-147) (natural protein)	
		DarB (from UniProt O31698)	0.65
